Measured values from the domain aggregation screens of Martell et al. (2025).

Assay: soluble fraction after stress (log2 fold change); higher = more stays soluble; pooled small domains, quantitative proteomics
Details: stress: 75 degC
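Also: 20 min heating vs room temperature control held 20 min.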

Sequence	soluble fraction (log2)
HMQTTPAGHELLIRYFANGNIRERGMMKDGKRNGIWIFYDESGMEIRKTKYKMGKIISDYDLN	-2.6
HMQTTQQLIRNLRLKQAATLLADKRHSITEVATLTGFTHPTYFATAFREMFGVSPSEYMEQHI	-1.49
HMQTYNQLKRGMTEWIQAGQKQKAYELFAGVAGQLSLSSAAGKKQYNELVTILNRAGFGIPLE	-1.12
HMQVEMVLSQEAHEWLLQRGFIPEYGAREMDRVIAAHLKPLLMREILFGTLKAGGKVRVQVENGALKLQP	-3.08
HMQVLSESDVEDIKAISGGDKAYDNLMEWAGSKLSKQDAKDYDDVLATGNKTAITFAVKALMAQYENAN	-0.198
HMQVPFGFQRNPSTGTLEEKAEEQLIINQVLSLKNSGIGVSEISKRLGELSVSRIYRIINTAKKNAS	-0.812
HMQVSDANQLTDVVKSIIKQYPVEVEKYKSGKKALFGFFMGKVMENLKGKSNPKILKNVLTEILD	0.22
HMQVSDTNTLEQFAKEVIEANPKAVEDYHQNPLAIGFLVGQLMKVSKGSANPQTGKEILEKLL	-0.112
HMQVSDVTTIRALVEEVLSSSPQQLAQYRAGKLSLKGYFVGQVMKKGKGQLNAAAVNNLLDEIL	-2.41
HMQVSEQVQRLLDALENDTLTTKELMDRLGLKHRPTFRKNYLLPSMKLGLVEMTIPDKPNSSRQKYRRRQ	-0.566
HMQVTEVDYGTFMKMVEEKNVGEVEVGNSMIVFTDKDGKAIYKTGAMNDPNLTERLYNAGASFTKE	0.144
HMQVTGLTAENAHRVTMIREKGTDHPPVPFHFRKEHHGTGNYVHLYGNPEDRNELHSRDFKDWEAVAFK	0.211
HMQVVDWSQVDKEDYLLATKRRAVSTGELKFLLLNNLTYDLTQTRFFKGMDASYYYEGYNLYQTGE	0.0696
HMQWGKVRRLPSGRYQASYVHKGTRYTAPETYTVQGRAHGWIESERRLIVTDTWTPPDTRPS	-1.24
HMQWLDSIRSRLRVGQTISYFEPRENASSSGLIIELRRKRVLVLEIATQKRWLIEYAAINVDG	-0.279
HMQWQPSEEAMQRLEQHGIPRAFSFSQLDAFVLQGQEQGSNRNDWNTRFFRFIKNQWVYAQN	-2.59
HMQYDSYTVEEPAKLLDWLLAHLRQSRTKIKATLQGHGIKVNGKTVTQFDYPLEPGMKIRVSLTK	-1.24
HMQYKTRVINLSILEVGMVLGRDLINKDGKIIVKKDVAISDFLKDHLIGLSKIKEIEPQIYIKV	-1.15
HMQYSIQVNKLLKAMREDVWYTANEILDLLKLKSKETLRKNYLDPAINNKLIILELPDKPTSRNQRYKI	-2.03
HMQYTQKTMYINDSYVNLRKSASTSSDIIMVVELNTKLTVIGEDGDWYKVKTSSGNAYVLKTLLSNEKKET	-3.22
HMQYTTDEVRERVLSVLNQLLLRWIVREGKDMFNIQANAVEISEGIKGELNTELEKIGLAATGFQIDSV	-0.393
HMRADRLISMLMLLQARGKITAEELAVELGVSQRTIYRDIEALSFAGVPVYAERGPGGGIGLLEPY	-1.73
HMRAEPNSNYSLAIIYKNRYDIAVKKKDAVKEVEYGKMVYEYLNKYVVLSGNKSAKYKKILNYFSSY	-3.02
HMRAFTPSEAQVAHARRVMEAFWQHQREGHGAFALDGKMVDAPIVKAAARVLARAGLQDPNHPIHLA	-0.332
HMRALPFSFANRHGVLIREISDGVAHAVYRIGSSPLGLAEARRFVGMPLMLTPVAREAFDSLLQQTYEQG	-2.39
HMRAPEIEAARSDLDVGQTVQIVRHLHGNQYEVFYRGAQWQAEAVGSSGANDAQTAVITGKNGNILLIQI	0.0986

Sequence	soluble fraction (log2)
HMRAVPTKLAPFVEVLKAMLEADGHRPKAQRRTAKALHLELISRGYAGGYTRLTDYIRDWRQQQG	-2.36
HMRDANYFINPIHEWQKRYEALRASFVDRLPAQAVAQRFGYTITYIHLLRHQFKSGKIDFSEPVPEG	-4.19
HMRDFTQPQTASIGPRMREALARGTMTVEELREQFRTQEFPHESVRTAFLEELERVAAELGLA	0.349
HMRDISTDTSAWTFQDIKRYYDPQDLLTEKQVGQALSLIKGRNLNPLLNEVYIVAYKKKNGGAEFSLIV	-0.224
HMRDPLNTGFRQTLKDIVNSLPKNELYSPGVREEYIYPKIGVTSLGMEASMVLNGLISSRRKNIELKEKN	0.369
HMRDPVDKDNYLGDWDKNKTYPAGYVMTFGDKNYLALQEVPAGTKPGATDPDPFWVLDTGKTLKD	-0.14
HMRDQARQFFIDTWAKFQRHDALTPLEEKTAAIIALHPEYHRVLQNPESFITTDWRPESGDINPFMHL	-2.02
HMRDSYEVEGRIASVSPAAGTFVVAGVTVDYTGARFVGGTVAQLAPGVKVEVEGRRLANGTLQAREIEFD	-0.142
HMRDSYTFEDIEKLKDSYLQDSEKALEKLISIYEDTNQSLAIRTAALDIITDSQDPTFKLALEKIIS	-0.177
HMRDTAKTLLAMEVVGENNKKNLQAFGIQKGDQNYQTAVVVRLMQKALMEGDTSAIRLIGELTGD	-0.0652
HMRDTLSKQLLTEEMVLQFIREMREHDPGIGGEKLHAMYLGRFGRDYEYMVGRDKMEMIIAENNLNVR	-0.996
HMRDYDFGNLLYKLRIESGYTQKDIADMLGVTDKAVSKWENGIAKPTTNNIKLLSTIYNVSVEELLNG	-1.19
HMRDYKTALQEWVQRTPGQPIAYRLVDELGPDHARVFVMEVTVGGQSAGQGRGRTKKEAEQLAARAALEKL	-0.448
HMREEIESVYKTLAVTEIPYIARGNSARLGSGIQTVYDFYRMEGMQVSKILGRNGSVLWLELHG	0.0223
HMREEMYGLIGFITTSEVTDTFGQMEIKLENEPEMRINVRTNPGESLARGDAAKIISFNNSNGTFLVELTK	-0.921
HMREFQVMKQELQEMVHQRLDMSTELSDEAIGDVIDEVIMEKSRNMYISSVTKLTLRQELFNAIR	-1.68
HMREGRERRLSQLLSYLRTHHILTRSEYVKLTGLSPTAASSELKTFVTAGHIVRKGIASHSTYRLPH	-1.91
HMREKLKEYVHLLFAGTVGKEDMEQEILQNTLDRFDDWVARGFSEEDAYRKAVSGIGDIDALLG	-0.0221
HMREPDPELTASIKSMAESNDQSERLVALAQLSEQRAVDPEVADQILLIALLDEDPIIRGQAVYA	0.274
HMRERLPFGFAQSKKVVLLSTESDTPKVLSVNWPSLDLYAELKRVIGRAFLLEIVSEEEFQAQVSDAYQRD	-2.47
HMREVGVPNLRGLTAEEAQIVLSNAGLNLRTEPIRRVHETITVGRIAEQDPMPDLTIRSQRSVTTWLSSGP	0.328
HMREVTVGSAVRLKKGAKTYSGGSLASFVYERNHQVTQLSGDRAVISFKGTVVAAVHKDDLIL	-1.06
HMREVVLNRIGSVAVQRATTRTWEEWVVTLDAEGMRGKEHRDVVGHLLRAHELTSWWAQMVSVGYEQSRGQ	-0.18
HMREYRITAEEGHPRIDVFLAGRPEIGLSRSRIQALIDEGQVTLNGAMPKARQAVNPGDVIVVRVPDPE	0.0963
HMRFEWFDTLTDREKEIFGLIATGFDNQQIADRLQLAEQTVRNNISTIYSKLEVKDRFEIIRLANTI	-1.35
HMRFKPLAEILAAVQTRYAGRVLDVELDRDQAGRNVYEVKLLAADGSRREIHIDAVTGKEVSL	-0.56

Sequence	soluble fraction (log2)
HMRGAIKMAEEQMAGHKKIGSISGTAPTQGELEKKFAMAAAQMGARYYVITGLSNNNYAFGNADIY	-0.669
HMRGDEDTGVWPTPMKRAYIDSLLKGYPTGVTMIVKPPGASHTTKWMILDGANRARALRDFMNDEFMI	-0.0871
HMRGFTDFEHIEKEYLATIEKLNWPDGVTLPDKLEGEDTGTSFQVGYGDTRASNLWEYSWMK	-0.163
HMRGIPEEVADVAIQWVARLDSNEISDADRAAFFAWLDASPINRWAYNDISESWAKLSILNEMGH	-1.87
HMRGLFTVYMVGEKASRVGELDEEMVYESRIGDVFALGATSWRIEEITHDRVLVSPAYGQPGRLPFWH	-2.13
HMRGLGDLEPVDSLGKIRIDDGHMVLAFGRHKGRHLSEVQAEDPRYIHWLLSPKGIEDVEAREKVKVYLEG	0.0762
HMRGLLSQREHDVLDLVARGFSYGEIARLRSISVSTVQTHIKNLYRKLAVSSRTEAVYEAKQMGI	-1.63
HMRGLVPEIVGTLEGEIRAGTLAVGQKLPTEAEIMARFDVSRTVVREALSRLQASDLVETRHGIGTFVSAR	-0.647
HMRGPDLSKDFHEYISSQWMFFGRNAYQIAEQINKDTQLMSKYGKTTPSGVHYHIKQIQQEMEN	-0.785
HMRGPPQVLVDVELEDGRVGQIGVRNGDDATELAETFVRAFRLEQSFVGRLANVIQGKIRELLHSQ	-1.74
HMRGSRIFSGDVSPLTLPANSPFFSGYTEFKPGDVYVERSATNIAMWEWKSQPGGYTWVKTADIA	-1.27
HMRGYGDRIRILRERAGITIEQLAERLGVAPYFIRRTELSEVYPTKPYIEALADVLNIDASYLARHI	-2.46
HMRHYVLKENNGVIAIYKVNQENEAVFKENTQIQVQYLPEVDLINLKKGIYAIGEEKLNSILEDF	-0.667
HMRIDSFEDARRRFEYDYLTRLLKLTQGSVTQAAKLAKRNRTEFYKLLQRHGIEAAHFKPTS	-1.53
HMRIDVWLAENGFAPSRQKAQDLIAAGRVFQTDPSGRRQKVSKASAAVDPALSPKIEVIPDPE	-0.0608
HMRILGIDPGYAITGYSIIDYVGNKFKLIDSGAVLTKAGVSFPLRLTKIYDDLSMIIDEYKPDA	0.0296
HMRIPANIAEDIKKLQKKEHHLHHHLGRDPFDDELAKELEWDTEQVSEIRQMIKNPELLEELLEAEREEE	0.0316
HMRITEQRRTLAKLFADTPGYLSPKDVYDYMGRFYPGLSFDTVYRNLRLLDELGVLEQVVFEDGVKFK	-0.847
HMRIWTISDLYKNVEDKKVSLAVFSEDNDSNKVNVLDINGEEHSVNLLKADLPTLVDLFRKNDVRFAVRSN	-0.116
HMRIWTPEMIKEYIISSNGKEPLNSHYYSTNHPSIYAAAERIFGSWGNAINAAGLDYNAIRKYK	-0.488
HMRIYFSPSEIGFYHESDKQAYLLAGTWPNDLLEISEKWFLYLLEGQQKGKVITVNDYDQPVLVD	-2.9
HMRIYTKDEYLAELSRYLHKLPQDDYESAMAYFREYFEEAGPENEAQAMRDLGTPKEAASEILQNLLH	-0.401
HMRKDYTVLYSAVNAEEATEIVSKLQESGVAYQYKDNGDVLVDKKQVDKVRAQLAQEGYPKS	0.0467
HMRKIEDVLRLHAQGMSTRRIALATGVGKTTVIEYLRRAAVAGLSWPLPEGLDEEALERRVFPPPP	-2.59
HMRKIFPFNPNFITDQRGYFLGMSTSEIDRLHHFRAANKWIQSAQEFQVVTKVSNAWLSEFSPYFNFP	-3.87
